This assay has as its target Spodoptera frugiperda ABCc2 transporter (Spodoptera frugiperda). As to the kind of experiment: cell-based or functional assay.

Turning to TIC105 toxin (wild type, unmodified), the relative fluorescence of SYTOX Green, Sf9 cells expressing the SfABCc2 transporter (relative fluorescence) came out at 57200.

(Values after patent US20170029844A1.)
